From patent publication US20260159566A1 (US Dept. of Health and Human Services, published 2026)
Like-named read-outs stand apart in the source and are kept apart here.

Experiments:
[1] = molecular target: T1, B-cell Maturation Antigen (BCMA) (human, UniProt Q02223 1-184); test: cell-based or functional assay
T1 sequence: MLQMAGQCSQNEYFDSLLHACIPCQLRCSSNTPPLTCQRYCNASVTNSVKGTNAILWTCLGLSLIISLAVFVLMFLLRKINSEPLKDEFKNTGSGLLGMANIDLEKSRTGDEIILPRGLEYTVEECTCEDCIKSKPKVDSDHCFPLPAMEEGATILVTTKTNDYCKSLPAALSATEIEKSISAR

[2] = molecular target: T2, BCMA-Fc protein labeled with phycoerythrin (Homo sapiens (Human), UniProt Q02223 1-54, labeled with phycoerythrin); test: flow cytometry, BCMA-Fc-PE staining of CAR-transduced T cells
T2 construct: Staining reagent; also called BCMA-Fc-PE reagent; BCMA-Fc protein reagent; not shown: Fc part
T2 sequence: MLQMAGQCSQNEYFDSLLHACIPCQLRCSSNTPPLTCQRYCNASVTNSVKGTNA
Description: (§1) With reference to Table 2, cultured T cells were transduced with the indicated CARs and cultured overnight with the indicated target cells (top row). After the overnight incubation, a standard ELISA assay was performed on the culture supernatant. BCMA-K562 is BCMA⁺. All other targets are BCMA-negative. The percentage of T cells expressing the indicated CAR was determined by staining with a BCMA-Fc-PE reagent followed by flow cytometry. The % CAR⁺ equals the percentage of CD3⁺ cells transduced with each CAR that stained with the BCMA-Fc-PE reagent minus the percentage of untransduced CD3⁺ lymphocytes that stained with the BCMA-Fc-PE reagent. Except for the % CAR⁺ column, all numbers are pg/mL of interferon-gamma.

[3] = molecular target: T2, BCMA-Fc protein labeled with …; test: as above; remark: listed apart in the source
Description: as §1

[4] = molecular target: T1, B-cell Maturation Antigen (BCMA); test: cell-based or functional assay; remark: listed apart in the source

% CAR+ (percentage of CD3+ cells stained with BCMA-Fc-PE minus untransduced) [2]: 60.5%
% CAR+ (percentage of CD3+ cells stained with BCMA-Fc-PE minus untransduced) [3]: 60.5%
Interferon-gamma ELISA, T cells cultured overnight with BCMA-K562 cells [4]: 31300 pg/mL
Interferon-gamma ELISA, T cells cultured overnight with RPMI-8226 cells [4]: 4060 pg/mL
B1: FHVH33-CD828Z (other)
chain: EVQLLESGGGLVQPGGSLRLSCAASGFTFSSYAMSWVRQAPGKGLEWVSSISGSGDYIYYADSVKGRFTISRDISKNTLYLQMNSLRAEDTAVYYCAKEGTGANSSLADYRGQGTLVTVSSFVPVFLPAKPTTTPAPRPPTPAPTIASQPLSLRPEACRPAAGGAVHTRGLDFACDIYIWAPLAGTCGVLLLSLVITLYCNHRNRSKRSRLLHSDYMNMTPRRPGPTRKHYQPYAPPRDFAAYRSRVKFSRSADAPAYQQGQNQLYNELNLGRREEYDVLDKRRGRDPEMGGKPRRKNPQEGLYNELQKDKMAEAYSEIGMKGERRRGKGHDGLYQGLSTATKDTYDALHMQALPPR
notes: Chimeric antigen receptor on transduced primary human T cells; also called FHVH33 CAR
Tumor-necrosis factor-alpha ELISA, T cells cultured overnight with BCMA-K562 cells [1]: 2160 pg/mL
Tumor-necrosis factor-alpha ELISA, T cells cultured overnight with RPMI-8226 cells [1]: 210 pg/mL
